The experiment addresses protamine-oligonucleotide nanoparticles (proticles) (salmon). Put plainly: co-sedimentation.

Here are results for 1 substance from paper PMC4861216.

“And” between values parts separate entries of the source, which are not always exact repeats. Identical values can stand only once.

For the substance “apolipoprotein A-I (from UniProt P02647 19-267) (natural protein)”, the percent of added apoA-I bound (5 ug apoA-I/10 ug ON) was found to be 80%; the stoichiometry N (apoA-I molecules per nanoparticle) is 14000 and 15000.
